Laboratory results from patent US9364516B2, “Treatment of fibrosis-related disorders using fibronectin binding proteins and polypeptides” (priority 2010, dated 2016).

Experiments:
human saphenous veins = assay: Ex vivo cultured human saphenous veins, intimal thickening; settings: 10× higher levels than 100-500 nM
Method: Saphenous veins were cut into 0.5 cm segments, and processed immediately (●) or cultured in 10% FBS/M199 containing 15 μM control III-11c peptide (▪) or pUR4 (▴) at 37° C. for 14 days. Veins were fixed, paraffin embedded, sectioned, and stained. Morphometric analysis was performed on six randomly chosen sections using Image-Pro Plus software. The intima/media ratio was determined by dividing intima area by media area. Paired student t-test was used to analyze the data. Data are expressed as mean±S.E.M. *p<0.05.
Human saphenous veins cultured in serum containing media develop intimal hyperplasia after 14 days in culture (Soyombo et al., “Intimal Proliferation in an Organ Culture of Human Saphenous Vein,” Am J Pathol. 137(6):1401-1410 (1990); Angelini et al., “Smooth Muscle Cell Proliferation in Response to Injury in an Organ Culture of Human Saphenous Vein,” Eur J Vasc Surg. 5(1):5-12 (1991); and Slomp et al., “Nature and Origin of the Neointima in Whole Vessel Wall Organ Culture of the Human Saphenous Vein,” Virchows Arch. 428(1):59-67 (1996), which are hereby incorporated by reference in their entirety). This system thus provides an ex vivo model system for studying mechanisms that lead to intimal hyperplasia that has distinct advantages over in vitro culture systems. […]

[1] = target: fibronectin-collagen interactions (Homo sapiens, UniProt P02751); assay: Blocking of fibronectin-collagen interactions in cell culture; assay type: cell-based; settings: cell culture experiments
Chain of fibronectin-collagen interactions (P02751 32-2477): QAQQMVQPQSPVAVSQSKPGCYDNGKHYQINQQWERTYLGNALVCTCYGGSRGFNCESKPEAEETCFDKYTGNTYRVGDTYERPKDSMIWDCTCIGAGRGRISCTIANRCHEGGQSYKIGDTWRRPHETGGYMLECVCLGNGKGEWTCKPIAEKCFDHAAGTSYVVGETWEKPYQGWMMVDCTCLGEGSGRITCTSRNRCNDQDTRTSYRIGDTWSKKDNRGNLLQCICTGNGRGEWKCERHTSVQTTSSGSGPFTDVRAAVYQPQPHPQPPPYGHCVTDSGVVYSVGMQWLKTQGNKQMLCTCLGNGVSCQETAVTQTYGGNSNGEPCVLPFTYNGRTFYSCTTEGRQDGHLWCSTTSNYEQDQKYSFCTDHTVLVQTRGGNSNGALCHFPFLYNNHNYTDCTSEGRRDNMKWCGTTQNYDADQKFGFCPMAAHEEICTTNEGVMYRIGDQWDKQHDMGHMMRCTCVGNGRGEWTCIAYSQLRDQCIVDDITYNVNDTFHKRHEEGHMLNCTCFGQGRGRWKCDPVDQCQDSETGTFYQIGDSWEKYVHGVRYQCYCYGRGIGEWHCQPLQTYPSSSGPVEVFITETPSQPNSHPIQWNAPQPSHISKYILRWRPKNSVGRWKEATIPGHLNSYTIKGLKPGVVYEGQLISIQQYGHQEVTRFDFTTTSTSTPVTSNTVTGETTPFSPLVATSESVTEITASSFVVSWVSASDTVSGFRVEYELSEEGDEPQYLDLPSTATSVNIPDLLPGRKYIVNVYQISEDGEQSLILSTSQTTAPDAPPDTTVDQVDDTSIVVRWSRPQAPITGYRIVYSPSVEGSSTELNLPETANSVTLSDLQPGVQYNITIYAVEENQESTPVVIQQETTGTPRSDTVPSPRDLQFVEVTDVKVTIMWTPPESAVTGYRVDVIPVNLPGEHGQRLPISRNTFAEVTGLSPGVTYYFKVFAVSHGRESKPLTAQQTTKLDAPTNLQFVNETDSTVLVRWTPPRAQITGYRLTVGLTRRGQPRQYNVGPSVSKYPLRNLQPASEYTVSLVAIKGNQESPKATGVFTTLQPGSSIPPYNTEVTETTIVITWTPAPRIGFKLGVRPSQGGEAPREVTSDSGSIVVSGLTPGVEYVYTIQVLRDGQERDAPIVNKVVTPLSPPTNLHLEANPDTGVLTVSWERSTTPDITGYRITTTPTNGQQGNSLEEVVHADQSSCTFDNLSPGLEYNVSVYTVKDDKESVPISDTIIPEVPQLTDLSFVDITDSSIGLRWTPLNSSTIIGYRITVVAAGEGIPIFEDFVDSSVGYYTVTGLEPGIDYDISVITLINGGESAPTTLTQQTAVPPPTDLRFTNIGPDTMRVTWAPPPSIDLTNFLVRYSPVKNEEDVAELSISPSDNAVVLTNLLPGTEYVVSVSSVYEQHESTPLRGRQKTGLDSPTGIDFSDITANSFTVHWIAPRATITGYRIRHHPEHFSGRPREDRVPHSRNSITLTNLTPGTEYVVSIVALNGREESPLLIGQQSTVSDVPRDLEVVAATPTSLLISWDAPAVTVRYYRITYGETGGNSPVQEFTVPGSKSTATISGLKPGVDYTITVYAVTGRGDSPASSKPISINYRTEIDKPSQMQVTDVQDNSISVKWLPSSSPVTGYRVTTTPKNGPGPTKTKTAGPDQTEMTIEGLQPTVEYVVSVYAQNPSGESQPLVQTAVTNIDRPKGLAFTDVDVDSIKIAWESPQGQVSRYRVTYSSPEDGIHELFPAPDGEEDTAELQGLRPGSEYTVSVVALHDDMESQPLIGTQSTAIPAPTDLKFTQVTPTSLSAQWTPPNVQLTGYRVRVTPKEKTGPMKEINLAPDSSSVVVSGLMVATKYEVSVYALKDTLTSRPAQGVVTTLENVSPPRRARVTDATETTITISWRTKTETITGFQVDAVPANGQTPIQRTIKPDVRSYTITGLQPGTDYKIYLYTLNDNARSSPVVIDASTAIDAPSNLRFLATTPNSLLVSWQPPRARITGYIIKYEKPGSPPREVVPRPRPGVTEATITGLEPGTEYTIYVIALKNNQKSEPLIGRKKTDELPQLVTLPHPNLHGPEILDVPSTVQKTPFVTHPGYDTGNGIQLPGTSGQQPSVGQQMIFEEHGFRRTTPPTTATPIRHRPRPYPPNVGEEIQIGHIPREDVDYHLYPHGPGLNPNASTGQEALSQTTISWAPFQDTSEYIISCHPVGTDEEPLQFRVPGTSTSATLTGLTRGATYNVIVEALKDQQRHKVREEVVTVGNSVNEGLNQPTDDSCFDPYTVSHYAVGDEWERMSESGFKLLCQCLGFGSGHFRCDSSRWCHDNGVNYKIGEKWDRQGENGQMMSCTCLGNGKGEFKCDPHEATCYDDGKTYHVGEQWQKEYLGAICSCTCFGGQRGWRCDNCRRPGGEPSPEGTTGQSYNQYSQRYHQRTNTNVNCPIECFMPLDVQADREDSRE

B1: R1R2: class II bacterial adhesin derived peptide (SEQ ID NO: 4) that interferes with fibronectin-collagen binding (peptide)
chain: HHHHHHGSGLNGENQKEPEQGERGEAGPPLSGLSGNNQGRPSLPGLNGENQKEPEQGERGEAGPPKSN
modifications: Bacterial adhesin derived peptide R1R2
intimal hyperplasia (human saphenous veins): attenuate | concentrations effective at blocking fibronectin-collagen interactions [1]: 100 to 500 nM
